Assay results taken from patent publication US20260055184A1 (Hoffmann-La Roche, published 2026).

B1: 4.24.72 (antibody, V domains shown)
VH: QIQLVQSGPELKKPGETVKISCKASGYTVTDYSMNWVKQAPGKCLKWMGWINTETGEPRYTDDFKGRFAFSLETSASTAYLQINNLKNEDSATYFCAREGDYDVFDYWGHGTTLKVSS
VL: DIVLTQSPASLAVSLGQRATISCRASKSVSTSSYSYMHWYQQKPGQPPKLLIKYVSYLESGVPARFSGSGSGTDFTLNIHPVEEEDAATYYCQHSREFPYTFGCGTKLEIK
B2: anti-idiotypic CH2527 binder 4.32.63 (scFv)
scFv: QVQLKESGPGLVAPSQSLSITCTVSGFSLTSYGVSWVRQPPGKCLEWLGIIWGDGSTNYHSALISRLSISKDNSKSQVFLKLNSLQTDDTATYYCAKGITTVVDDYYAMDYWGQGTSVTVSSGGGGSGGGGSGGGGSGGGGSDIQMTQSPASLSASVGETVTITCRASENIDSYLAWYQQKQGKSPQLLVYAATFLADDVPSRFSGSGSGTQYSLKINSLQSEDVARYYCQHYYSTPYTFGCGTKLEIK
notes: From mouse hybridomas (immunisation with CH2527 Fab)
B3: anti-idiotypic CH2527 binder 4.15.64 (scFv)
scFv: QIQLVQSGPELKKPGETVRISCKASGYTFTDYSIHWVKQAPGKCLKWMGWINTETGEPAYADDFKGRFAFSLETSASTAYLQINNLKNEDTATFFCAHPYDYDVLDYWGQGTSVTVSSGGGGSGGGGSGGGGSGGGGSDTVLTQSPASLGVSLGQRATISCRASKSVSTSNYSYIHWYQQKPGQPPKLLIKYVSYLESGVPARFSGSGSGTDFTLNIHPVEEEDAATYYCQHSREFPWTFGCGTKLEIK
notes: as for B2
B4: HER1-binding IgG1 antibody GA201 (antibody, V domains shown)
VH: QVQLVQSGAEVKKPGSSVKVSCKASGFTFTDYKIHWVRQAPGQGLEWMGYFNPNSGYSTYAQKFQGRVTITADKSTSTAYMELSSLRSEDTAVYYCARLSPGGYYVMDAWGQGTTVTVSS
VL: DIQMTQSPSSLSASVGDRVTITCRASQGINNYLNWYQQKPGKAPKRLIYNTNNLQTGVPSRFSGSGSGTEFTLTISSLQPEDFATYYCLQHNSFPTFGQGTKLEIKR
notes: produced in 293-F cells; also called anti HER1 antibody GA201; GA201 parental unmasked antibody

Assays:
[1] = molecular target: T1, CD3 binder CH2527 (VL_7-46(13)/VH_3-23(12)), as analyte MAK<CEA/CD3>rH; assay: SPR (Biacore), 37°C, analyte MAK<CEA/CD3>rH
T1 construct: the rest of the analyte MAK<CEA/CD3>rH (a CEA/CD3 molecule by its name) is not described

[2] = molecular target: T1, CD3 binder CH2527 …; assay: SPR (Biacore), 25°C, analyte MAK<CEA/CD3>rH
[3] = molecular target: T2, HER1 extracellular domain (human, UniProt P00533 25-645); assay: SPR (Biacore T100), HER1 extracellular domain amine-coupled on a CM5 chip, antibody as analyte, 37 °C, 1:1 Langmuir model
T2 construct: extracellular domain
Protocol: (§1) HER1 was immobilized on the surface of a CM5 biosensorchip using standard amine-coupling chemistry. The HER1 extracellular domain was injected in sodium acetate, pH 5.0 at 1 μg/ml. Reference control flow cells were treated in the same way but with vehicle buffer only. […] The association phase was 3 minutes and the dissociation time was 10 minutes. […] Kinetic rate constants and equilibrium dissociation constants were calculated by using the 1:1 Langmuir binding model within the Biaevaluation software.

[4] = molecular target: T2, HER1 extracellular domain; assay: SPR Biacore T100; HER1 extracellular domain amine-coupled on CM5, antibody injected at 3.125-50 nM, 1:1 Langmuir model
Protocol: as §1

Row | Binder | Kd [1] | koff [1] | kon [1] | Kd [2] | koff [2] | kon [2] | koff [3] | kon [3] | Kd [4]
1 | B1 | 29 nM | 0.00445 s⁻¹ | 155000 M⁻¹ s⁻¹ | 14 nM | 0.00118 s⁻¹ | 87200 M⁻¹ s⁻¹ |  |  | 
2 | B2 | 2 nM | 0.000652 s⁻¹ | 346000 M⁻¹ s⁻¹ | 1 nM | 0.000105 s⁻¹ | 196000 M⁻¹ s⁻¹ |  |  | 
3 | B3 | 94 nM | 0.0135 s⁻¹ | 144000 M⁻¹ s⁻¹ | 96 nM | 0.0025 s⁻¹ | 26100 M⁻¹ s⁻¹ |  |  | 
4 | B4 |  |  |  |  |  |  | 0.00012 s⁻¹ | 168000 M⁻¹ s⁻¹ | 1 nM
